{
  "source": "patent US20200179511A1",
  "about": "(Novartis, published 2020)",
  "key": {"[1]": {"molecular_target": "T1, human BCMA (B-cell maturation antigen) (human, UniProt Q02223 1-184)", "T1 sequence (looked up)": "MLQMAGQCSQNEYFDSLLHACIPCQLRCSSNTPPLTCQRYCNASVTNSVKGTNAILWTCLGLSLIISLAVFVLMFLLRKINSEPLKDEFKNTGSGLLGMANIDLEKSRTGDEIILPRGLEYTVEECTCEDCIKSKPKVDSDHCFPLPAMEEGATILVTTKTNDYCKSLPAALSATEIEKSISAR", "assay": "cell-based or functional assay"}, "[2]": {"molecular_target": "T1, human BCMA (B-cell maturation antigen)", "assay": "cell-based or functional assay", "remark": "listed apart in the source"}},
  "data": [
    {"binder": "BCMA×CD3 bispecific antibody EE11 (bispecific antibody) chain 1: not shown chain 2: EVQLVESGGGLVQPGGSLKLSCAASGFTFNTYAMNWVRQASGKGLEWVGRIRSKYNNYATYYADSVKDRFTISRDDSKSTLYLQMNSLKTEDTAVYYCVRHGNFGNSYVSWFAYWGQGTLVTVSSGGGGSGGGGSGGGGSGGGGSQAVVTQEPSLTVSPGGTVTLTCRSSTGAVTTSNYANWVQQKPGQAPRGLIGGTNKRAPWTPARFSGSLLGDKAALTLSGAQPEDEAEYFCALWYSNLWVFGGGTKLTVLGGGGSDKTHTCPPCPAPELLGGPSVFLFPPKPKDTLMISRTPEVTCVVVAVSHEDPEVKFNWYVDGVEVHNAKTKPREEQYNSTYRVVSVLTVLHQDWLNGKEYKCKVSNKALAAPIEKTISKAKGQPREPQVCTLPPSRDELTKNQVSLSCAVKGFYPSDIAVEWESNGQPENNYKTTPPVLDSDGSFFLVSKLTVDKSRWQQGNVFSCSVMHEALHNHYTQKSLSLSPGK", "values": [
      {"measurement": "fold enhancement of RTCC EC50 upon GSI treatment", "setting": "[1]", "value": "≥ 10", "unit": "fold"}
    ]},
    {"binder": "BCMA×CD3 bispecific antibody EM90 (bispecific antibody) light: QAVVTQEPSLTVSPGGTVTLTCGSSTGAVTTSNYANWVQEKPGQAFRGLIGGTNKRAPGTPARFSGSLLGGKAALTLSGAQPEDEAEYYCALWYSNLWVFGGGTKLTVLGQPKAAPSVTLFPPSSEELQANKATLVCLISDFYPGAVTVAWKADSSPVKAGVETTTPSKQSNNKYAASSYLSLTPEQWKSHRSYSCQVTHEGSTVEKTVAPTECS heavy 1: not shown heavy 2: EVQLVESGGGLVKPGGSLRLSCAASGFTFSNSGMIWVRQAPGKGLEWVGHIRSKTDGGTTDYAAPVKGRFTISRDDSKNTLYLQMNSLKTEDTAVYYCTTGGSGSFDYWGQGTLVTVSSASTKGPSVFPLAPSSKSTSGGTAALGCLVKDYFPEPVTVSWNSGALTSGVHTFPAVLQSSGLYSLSSVVTVPSSSLGTQTYICNVNHKPSNTKVDKRVEPKSCDKTHTCPPCPAPEAAGGPSVFLFPPKPKDTLMISRTPEVTCVVVDVSHEDPEVKFNWYVDGVEVHNAKTKPREEQYNSTYRVVSVLTVLHQDWLNGKEYKCKVSNKALPAPIEKTISKAKGQPREPQVCTLPPSREEMTKNQVSLSCAVKGFYPSDIAVEWESNGQPENNYKTTPPVLDSDGSFFLVSKLTVDKSRWQQGNVFSCSVMHEALHNHYTQKSLSLSPGK", "values": [
      {"measurement": "fold enhancement of RTCC EC50 upon GSI treatment", "setting": "[1]", "value": "> 40", "unit": "fold"}
    ]},
    {"binder": "BCMA×CD3 bispecific antibody ER26 (bispecific antibody, human IgG1, kappa, N297A) heavy: QVQLVQSGAEVKKPGSSVKVSCKASGGTFSNYWMHWVRQAPGQGLEWMGATYRGHSDTYYNQKFKGRVTITADKSTSTAYMELSSLRSEDTAVYYCARGAIYNGYDVLDNWGQGTLVTVSSASTKGPSVFPLAPSSKSTSGGTAALGCLVKDYFPEPVTVSWNSGALTSGVHTFPAVLQSSGLYSLSSVVTVPSSSLGTQTYICNVNHKPSNTKVDKRVEPKSCDKTHTCPPCPAPELLGGPSVFLFPPKPKDTLMISRTPEVTCVVVAVSHEDPEVKFNWYVDGVEVHNAKTKPREEQYNSTYRVVSVLTVLHQDWLNGKEYKCKVSNKALAAPIEKTISKAKGQPREPQVCTLPPSREEMTKNQVSLSCAVKGFYPSDIAVEWESNGQPENNYKTTPPVLDSDGSFFLVSKLTVDKSRWQQGNVFSCSVMHEALHNHYTQKSLSLSPGK light: not shown not shown", "values": [
      {"measurement": "fold enhancement of RTCC EC50 upon GSI treatment", "setting": "[1]", "value": "> 100", "unit": "fold"}
    ]},
    {"binder": "BCMA×CD3 bispecific antibody BU76 (bispecific antibody, human IgG1, kappa, N297A) heavy: QIQLVQSGPELKKPGETVKISCKASGYTFTDYSINWVKRAPGKGLKWMGWINTETREPAYAYDFRGRFAFSLETSASTAYLQINNLKYEDTATYFCALDYSYAMDYWGQGTSVTVSSASTKGPSVFPLAPSSKSTSGGTAALGCLVKDYFPEPVTVSWNSGALTSGVHTFPAVLQSSGLYSLSSVVTVPSSSLGTQTYICNVNHKPSNTKVDKRVEPKSCDKTHTCPPCPAPELLGGPSVFLFPPKPKDTLMISRTPEVTCVVVDVSHEDPEVKFNWYVDGVEVHNAKTKPREEQYASTYRVVSVLTVLHQDWLNGKEYKCKVSNKALPAPIEKTISKAKGQPREPQVCTLPPSREEMTKNQVSLSCAVKGFYPSDIAVEWESNGQPENNYKTTPPVLDSDGSFFLVSKLTVDKSRWQQGNVFSCSVMHEALHNHYTQKSLSLSPGK light: DIVLTQSPASLAMSLGKRATISCRASESVSVIGAHLIHWYQQKPGQPPKLLIYLASNLETGVPARFSGSGSGTDFTLTIDPVEEDDVAIYSCLQSRIFPRTFGGGTKLEIKRTVAAPSVFIFPPSDEQLKSGTASVVCLLNNFYPREAKVQWKVDNALQSGNSQESVTEQDSKDSTYSLSSTLTLSKADYEKHKVYACEVTHQGLSSPVTKSFNRGEC not shown", "values": [
      {"measurement": "fold enhancement of RTCC EC50 upon GSI treatment", "setting": "[1]", "value": "> 100", "unit": "fold"}
    ]},
    {"binder": "Anti-BCMA J6M0 hIgG DLE CGW117 (MMAE) conjugate (antibody, V domains shown, drug conjugate CGW117 (MMAE); attachment site not stated) VH: QVQLVQSGAEVKKPGSSVKVSCKASGGTFSNYWMHWVRQAPGQGLEWMGATYRGHSDTYYNQKFKGRVTITADKSTSTAYMELSSLRSEDTAVYYCARGAIYDGYDVLDNWGQGTLVTVSS VL: DIQMTQSPSSLSASVGDRVTITCSASQDISNYLNWYQQKPGKAPKLLIYYTSNLHSGVPSRFSGSGSGTDFTLTISSLQPEDFATYYCQQYRKLPWTFGQGTKLEIKR", "values": [
      {"measurement": "Fold GSI Enhancement, ADC killing assay, MM1S cells", "setting": "[2]", "value": 17.4, "unit": "fold"},
      {"measurement": "Fold GSI Enhancement, ADC killing assay, U266B1 cells", "setting": "[2]", "value": 23.1, "unit": "fold"},
      {"measurement": "IC50, ADC killing assay, MM1S cells, No GSI", "setting": "[2]", "value": 19.4, "unit": "nM"},
      {"measurement": "IC50, ADC killing assay, MM1S cells, with GSI LY-411575", "setting": "[2]", "value": 1.12, "unit": "nM"},
      {"measurement": "IC50, ADC killing assay, U266B1 cells, No GSI", "setting": "[2]", "value": 6.04, "unit": "nM"},
      {"measurement": "IC50, ADC killing assay, U266B1 cells, with GSI LY-411575", "setting": "[2]", "value": 0.26, "unit": "nM"}
    ]},
    {"binder": "Pfizer_CD3_H2B4_RRRR-Pfizer_BCMA_comboC29_EEEE hIgG2a_ASS (bispecific antibody) heavy 1: EVQLLESGGGLVQPGGSLRLSCAASGFTFSSYPMSWVRQAPGKGLEWVSAIGGSGGSLPYADSVKGRFTISRDNSKNTLYLQMNSLRAEDTAVYYCARYWPMDIWGQGTLVTVSSASTKGPSVFPLAPCSRSTSESTAALGCLVKDYFPEPVTVSWNSGALTSGVHTFPAVLQSSGLYSLSSVVTVPSSNFGTQTYTCNVDHKPSNTKVDKTVERKCEVECPECPAPPVAGPSVFLFPPKPKDTLMISRTPEVTCVVVAVSHEDPEVQFNWYVDGVEVHNAKTKPREEQFNSTFRVVSVLTVVHQDWLNGKEYKCKVSNKGLPSSIEKTISKTKGQPREPQVYTLPPSREEMTKNQVSLTCEVKGFYPSDISVEWESNGQPENNYKTTPPMLDSDGSFFLYSKLTVDKSRWQQGNVFSCSVMHEALHNHYTQKSLSLSPGK light 1: EIVLTQSPGTLSLSPGERATLSCRASQSVSSSYLAWYQQKPGQAPRLLMYDASIRATGIPDRFSGSGSGTDFTLTISRLEPEDFAVYYCQQYQSWPLTFGQGTKVEIKRTVAAPSVFIFPPSDEQLKSGTASVVCLLNNFYPREAKVQWKVDNALQSGNSQESVTEQDSKDSTYSLSSTLTLSKADYEKHKVYACEVTHQGLSSPVTKSFNRGEC heavy 2: EVQLVESGGGLVQPGGSLRLSCAASGFTFSDYYMTWVRQAPGKGLEWVAFIRNRARGYTSDHNASVKGRFTISRDNAKNSLYLQMNSLRAEDTAVYYCARDRPSYYVLDYWGQGTTVTVSSASTKGPSVFPLAPCSRSTSESTAALGCLVKDYFPEPVTVSWNSGALTSGVHTFPAVLQSSGLYSLSSVVTVPSSNFGTQTYTCNVDHKPSNTKVDKTVERKCRVRCPRCPAPPVAGPSVFLFPPKPKDTLMISRTPEVTCVVVAVSHEDPEVQFNWYVDGVEVHNAKTKPREEQFNSTFRVVSVLTVVHQDWLNGKEYKCKVSNKGLPSSIEKTISKTKGQPREPQVYTLPPSREEMTKNQVSLTCLVKGFYPSDISVEWESNGQPENNYKTTPPMLDSDGSFFLYSRLTVDKSRWQQGNVFSCSVMHEALHNHYTQKSLSLSPGK light 2: not shown", "values": [
      {"measurement": "Fold GSI Enhancement, RTCC assay, KMS11 target cells", "setting": "[2]", "value": 48.3, "unit": "fold"},
      {"measurement": "IC50, RTCC assay, KMS11 target cells, No GSI", "setting": "[2]", "value": 0.097, "unit": "nM"},
      {"measurement": "IC50, RTCC assay, KMS11 target cells, with GSI LY-450139", "setting": "[2]", "value": 0.002, "unit": "nM"},
      {"measurement": "IC50, RTCC assay, KMS11 target cells, with GSI PF-3084014", "setting": "[2]", "value": 0.002, "unit": "nM"},
      {"measurement": "IC50, RTCC assay, KMS11 target cells, with GSI PF-5212362", "setting": "[2]", "value": 0.002, "unit": "nM"}
    ]}
  ]
}
